In the nanobody polyreactivity screen of Harvey et al. (2022):

Assay: yeast display, Sf9 membrane polyspecificity reagent, FACS + sequencing; frameworks hold sequencing errors
Procedure, shortened: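 Galactose induction of a Saccharomyces cerevisiae BJ5465 synthetic nanobody display library ran 36–48 hours. The cells were then stained for 1 hour at 4 °C with 10% biotinylated, detergent-solubilized Sf9 membrane reagent, pulled down on streptavidin microbeads and FACS-sorted into low and high (top ~1%) gates on expression and reagent-binding fluorescence. Labels for polyreactivity follow the gate of origin.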

Row | Sequence | polyreactivity (PSR sort gate)
1 | QVQLVDSGGGLLQAGASLRLSCAASGITFYINAMGWYRQPPGKERALVAVIDSRGSSTFYADSVKGRFTISRHNAKNSVYLQMNSLKPEYTAVYYCAAEPDTYWYTYDYWGQRTQVTVSS | low polyreactivity
2 | QVQLVESGGGLVQAGGSLRLSCAASGFTFSAYTMGWYRQAPGKERELVAAINWSAANTYYADSVKGRFTISRDNAKNTVSLQMNSLKPEDTAVYYCNAEDDYTYDRSFGGYKYDYWGQGTQVTVSS | low polyreactivity
3 | QVQLVESGGGLDQAGGSLRLSCAASGRILRGYVMGWYRQAPGKERELVATITGRGGSTYYADSVKGRFTISRDNAKNSVYLQMNSLKPEDPAVYYCNKDGYPYFGRSESWGQGPQVTVSS | low polyreactivity
4 | QVQLVESGGGLVQAGGSLRLSCAASGSTFEYYAMGWDRQAPGKERELVAGISTGGSSNYADSVKGRFTISRDNAKNTVYLQMNSLKPEDTAVYYCNRDWALYVFGSHYHAYYSWGQGTQVTVSS | low polyreactivity
5 | QVQLVESGGGLVQAGGSLRLSCAASGFTFAANTMGWYRQAPGKERELVADISGRGDRTSYADSVKGRFTISRDNAKNTVYLQMNSLKPEDTSVYYCAVDIYYYSNVHYYYWGQGTQVTVSS | low polyreactivity
6 | QVQLVESGGGLVQAGGSLRLSCAASGSTFHTNSMGGYRQAPGKETELVAAIRSGGGTNYADSVKGRFTISRDNAKNTVYLQMNSLKPEDTAVYYCNASPLPYSHRGDYWGQGTQVTVSS | low polyreactivity
7 | QVQLVESGGVLVQAGGSLRLSCAASGSIFGVYTMGWYRQAPGKERELVAAISGSGGSTYYADSVKGRFTISRDNAMNTVYLQMNSLKPEDTAVYYCATRFPKIPPYDSWGQGTQVTVSS | low polyreactivity
8 | QVQLVESGGGLVQAGGSLRLSCAASGRIFGKYVMGWYRQAPGKERELVAAIRSSGGSTYYADSVKGRFTISRDNAKNTVYLQLNSLKPEDTAVYYCAKRLHYSAPRYTENDYWGQGTQVTVSS | high polyreactivity
9 | QVQLVESGGGLVQAGGSLRLSCAASGLTFYAYAMGWYRQAPGKERELVAAISSRGGRTYYADSVKGRFTISRDNAKNTVYLQMNRLKPEDTAVYYCAARIYRYDTTVVPRYDYWGQGTQVTVSS | high polyreactivity
10 | QVQLVESGGGLVQAGGSLRLSCAASGFIFDINAMGWYRQAPGKERELVAAISYSGGSTYYADSVKGRFTISRDNAKNNVYLQMNSLKPEDTAVYYCAADSGPDSDEGDYWGQGTQVTVSS | low polyreactivity
11 | QVQLVESGGGLVQAGGSLRLSCAASGLTFRYYAMGWYRQAPGKERELVAAISRSGGSTYYADSVKGRFTISRDNAKNTVYLQMNSLKPEDTAVYYCAAGRRGGKQGGTRGGDYWGQGTQVTVSS | high polyreactivity
12 | QVQLVESGGGLVQAGGSLRLSCAASGSTFVFYTMGWYRQAPGKEREFVASISGSGGSTYYADSVKGRFTISRDNAKNTVYLQMNSLKPEVSAVYYCAAGYPYYYWTPYYYWGQGTQVTLSS | high polyreactivity
13 | QVQLVESGGGLFQAGGILRLSCAASGYTFPDYAMGWYRQAPGKEREFVATISWSGTSTYYADSVKGRFTISRDNAKNTVYLQMNSLTTEDTAVYYCNKTPSSWPDLYSYNYWGQGTQVTVSS | low polyreactivity
14 | QVQLVESGGGLVQAGGSLRLSCAASGITFNGYVMGWYRQAPGKERELVAAITSGGSTNYADSVKGRFTISRDNAKNTVYLQMNSLKPEDTAVYYCAARYKAYWQLYDYWGQGTQVTVSS | high polyreactivity
15 | QVQLVESGGGLVQAGGSLRLSCAASGSIFPYYAMGWYRQAPGKERELVAAISSGGSTNYADSVKGRFTISRDNAKNTVYLQMNSLKPEDTAEYYCAARWSRIFRDRVKYWYDYWGQGTQVTVSS | low polyreactivity
16 | QVQLVESGGGLVQEGGSLRLSCAPSGFIFRRNAMGAYRQAPGKERELVAAITKSGGSTYYADSVKGRFTISRDNAKNTVYLQMNSLKPEDTAVYYCAAPTWTRSSFDYWGQGTQVTVSS | high polyreactivity
17 | QVQLVESGGGLVQAGGSLRLSCAASGIIFGYYAMGWYRQAPGKERELVASIIWSGGSTYYADSVKGRFTISRDNAKNTVYLQMNSLKPEDTAVYYCAAYRYQEYDYWGQGTQVTVSS | high polyreactivity
18 | QVQLVESGGGLVQAGGSLRLSCAASGSTLLTYTMGWYRQAPGKERELVASITTSGGSTYYADSVKGRFTSSRDNAKNTVYLQMNSLKPEDTAVYYWGQGTQVTVSS | low polyreactivity
19 | QVHLVESGGGLVQAGGSLRISCAASGFIFEPYAMGWYRQAPGKERELVAAISSTGGSTYADSVKGRFTISRDNAKNTVYIQMNSLKPEDTEGYYCAAKVRISRYTYGYWGQGNQVTVSS | high polyreactivity
20 | QVQLVESGGCLVQAGGSLRLSCAASGRTFFGYAMGWYRQAPGKERELVAALTRGGSTNYADSVKGRFTFSRDNAKNTVYLQMNSLKPEDTAVYYCNAERYRSRRYPYRYLYYYWGQGTQVTVSS | high polyreactivity
21 | QVQHVESGGGIVQAGGSLRLSCAASGRIFDSNAMGWYRQAPGKERELVAAITTSGGSTFYADSVKGRFTISRDNAKNTVYLQMNSLKPEDTAVYYCAAGYSYYYHAIFPFDYWGQGTQVTVSS | high polyreactivity
22 | QVQLVESGGGLVQAGGSLRLSCAASGSIFYQYAMGWYRQAPGKERELVARIRGSTGTTYYADSVKGRFTFSRDYAKNTVYLQMNSLKPEDNAVYYCNAARYQGRSRFDYWGQGTQVTVSS | high polyreactivity

Row | Sequence | polyreactivity (PSR sort gate)
23 | QVQLVESGGRLVQAGGSLRLSCAASGRTFTAYTMGGYRQAPGKERELVASNSSGVTYADSVKGRFTISRDNAKNTVYLQMNSLKPEDTAVYYCAARLWYVQGYVPYVHHRFDYWGQGTQVTVSS | low polyreactivity
24 | HVQLVESGGGLVQAGGSLRLICGASGFTFPNYAMGGYRHAPGKERELVAAITSGGGRTNYADSVKGRFTISRDNAKITVYLQMNSLKPADTAVYYCNAEKTYLGSRYRPYNYWGQGTQVTVSS | low polyreactivity
25 | QVQLVESGGGLVQAGGSLRLSCAASGRNFRVNAMGWYTQAPGKERELVAAISWIGGRTYYADSVKGRFTISRDNAKNTVYLQMNSLKPEDTAVYYCAAGTRRYYYWKYDYWGQGTQVTVSS | high polyreactivity
26 | QVQLVESGGGLVQAGGSLRLSCAASGSTFGSYAMGWYRQAPGKERELVAAISGRGGRTSYADSVKGRFTISRDNAKNTVYLQMNSLKPQDTAVYYCAAKRGGLGVTAASLYDYYFWGQGTQVTVSS | high polyreactivity
27 | QVQLVESGGGLVQAGGSLRLSCAASGSTFGDYTMGLYRQAPGKERELVAAITLTGGSTYYADSVKGRFTISRDNAKNTVYLQMNSLKPEDTAVYYCAKEWIFDFNYWGQGTQVTVSS | low polyreactivity
28 | QVQLVESGGGLVQAGGSLRLSCAASGRIFRVYAMGWYRQAPGKERELVAAISGRGGSTTYADSVKGRFTISRDNAKNTVYLLMNSLKPEDTAVYYCAAGYRVDYWGQGTQVTVSS | low polyreactivity
29 | QVQLVESGQGLVQAGGSLRLSCAASGFTFWGYTMGWYRQAPGKERELVAGITLSGGSTYYADSVKGRFTISRDNAKNTVYLEMNSLKPEDTAVYYCAAKPYQVSSYDFSLRDYWGQGTQVTVSS | low polyreactivity
30 | QVQLVESGGGLVQAGGSLRLSCAASGRILDYYAMGWYRQAPGKERELVAAISRSGSDTYYADSVKGRFTISRDNAKNTVYLQMNSLKPEDTAVYYCAARWSYRSLARYNYWGQGTQVTVSS | low polyreactivity
31 | QVQRVESGGGLVQAGGSLRLTSAASGSTFGTNAMGWYRQAPGTERELVATISKSGGSTYYADSVKGRFTISRDNAKNTVYLQMNSLKPEANAVYYCARRYRDYGRYGYWGQGTEVTVSS | high polyreactivity
32 | QVQLVESGGGLVQAGGSLRLSCAASGFIFRAYAMGWYRQAPGKERELVAAISGSGGSTYYADTVKGRFTISRDNAMNTVDLQMNSLKPEDTAVYYCNKYVGYYAYNYNYWGQGTQVTVSS | high polyreactivity
33 | QVQLVETGGGLVHAGGSLRLSCAASGITFTTNTMGWYRQAPGKERELVAAISSTGGNTFYADSVKGRFTISRDNAKNTVYLQMNSLKPEDTAVYYCSYVPSNARGEYDSWGQGTQVTVSS | low polyreactivity
34 | QVQLVESGGGLVQAGGSLRLSCAASGITFEHYAMGWYREAPGKERELVAAINRSGDNTYYADSVKGRFTISRDNAKNTVYLQMNSLKPEDTAVNYCNTVELYWRGYDYWGQGTQVTVSS | high polyreactivity
35 | QDQLVESGVGLVQAGGSLRLSCAASGSTFYYYAMGWYRQAPGKERELVAAITSDGSTNYADSVKGRFTISRDNAKNTVYLQMNSLKTEDTAVYYCAKTYYWGYDWGQGTQVTVSS | low polyreactivity
36 | QVQLVESGGGLVQAGGSLRLSCAASGITFVKNAMGWYRQAPGKERELVARIRIGGSTSYADSVKGRFTISRDNAKNTVYLQMISLKPEDTAVYYCARYAGRLSYRYEYWGQGTQVTVSS | high polyreactivity
37 | QVQLVESGGGLVQAGGSLRLSCAASGRTFGWYTMGRYRQAPGKERELVAGISSSGGSTYYADSVKGRFTISRDNAKNTVYLQMNSLKPEDTAVYYCARETYPHGLYYRPYDYWGQGTQVTVSS | low polyreactivity
38 | QVQLVESGGGLVQAGGSLRLSCAASGSTFGQYVMGWYRQAPGKERELVAAISSADSTNYADSVKGRFTISRDNAKNTVYLQMNSLKPEDTAVYYCAAARRPTYWPVYPYFGYEYWGQGTQVTVSS | low polyreactivity
39 | QVQLVESGGRLVQAGGSLRLSCAASGITFNVYAMGWYRQEPGKERELVAAITSSGATTYYADSVKGRFTISRDNAKNTVYLQMNSLKPEDTSVYYCAAKLSTRRYKYDYWGQGTQVTVSS | high polyreactivity
40 | QVQLVESGGGLVQAGGSLRLSCAASGRIFTGNAMGWYRQAPGKERELVAAISRRGTRTYYADSVKGRFTISRDNAKNTVYLQMNSLKPEDTAVYYCATRPGYWRYEYWGQGTQVTVSS | high polyreactivity
41 | QVQLVESGGGLVQAGGSLRLSCAASGSTLQSYAMGWYSQAPGKERELVAGIRISGGNTRYADSVKGRFTISRDNAKNTVYLQMNSLKPEDTAVYYCAALTGFYNLRPYGYWGQGTQVTVSS | high polyreactivity
42 | QVQLQESGGGLVQACGSQRLSCAASGSICEGQDMGWYRRAPGKEREFVAGIAPGATTYYADSVKGRFTISRDNAKNTVYLQMNSLKPEDTAVYYCAARSVTETDHDSWGQGTQVTVSS | low polyreactivity
43 | QVQLVESGGGLVQAGGSLRLSCAASGFILGSNVMGWYRQAPGKERELVAAISYSGGSTYYADSVKGRFTISRDNAKNTVYLQMNSLKPEDTAVYYCARRLTREYDYWGQGSQVTVSS | low polyreactivity
